Values quoted from earlier work, collected in article doi:10.1101/2024.11.09.622800.
Read-outs that look alike come from different tables or passages of the source.

Legend:
Asp85 = Asp85 (UniProt position 98, WARYADWLFTT)
Asp75 = Asp75 (UniProt position 122, TWREADINYTS)
Cys48 = Cys48 (UniProt position 48, SLKASCLYGQL)
Glu325 = Glu325 (UniProt position 325, TLHMFEVPFLL)
Lys132 = Lys132 (UniProt position 214, KSEAQKKKEKL); test: stability
Asp118 = Asp118 (UniProt position 200, YVYKPDNTHEQ); test: stability
Asp41 = Asp41 (UniProt position 123, LLLVDDPETKH); test: stability
Asp26 = Asp26 (UniProt position 26, KLVVVDFSATW)
Glu172 = Glu172 (UniProt position 200, QVMATEGYQSS)

Question: Which pKa (Asp85; conformational state associated by the authors with PDB 1IW6) does the source give for “Bacteriorhodopsin (Halobacterium salinarum (not stated in the article))” here?
Answer: Its pKa is 7.2.

Question: What about the pKa (Asp85; conformational state associated by the authors with PDB 1UCQ (retinal forms a salt bridge with Asp85)) of the same substance?
Answer: The pKa was 2.6.

Question: Which pKa (Asp75) does the source give for “Barnase (Bacillus amyloliquefaciens (not stated in the article))” here?
Answer: Its pKa is 3.1.

Question: With Glutathione S-transferase (PDB 5X79) as the substance, how does the pKa (Cys48) read?
Answer: Its pKa is 3.7.

Question: For “Lactose permease LacY (Escherichia coli (not stated in the article))”, which pKa (Glu325) is on record?
Answer: Its pKa is 10.5.

Question: With “Staphylococcal nuclease (SNase) A132K variant (Staphylococcus aureus; A132K)” as the substance, how does the pKa (Lys132) read?
Answer: Its pKa is 10.4.

Question: Which pKa (Asp118) does the source give for “Staphylococcal nuclease (SNase) N118D variant (Staphylococcus aureus; N118D)” here?
Answer: The pKa was 7.0.

Question: For “Staphylococcal nuclease (SNase) T41D variant (Staphylococcus aureus; T41D)”, which pKa (Asp41) is on record?
Answer: The pKa was “∼4”.

Question: With Thioredoxin (Homo sapiens) as the substance, how does the pKa (Asp26; oxidized) read?
Answer: The pKa was 8.1.

Question: And the pKa (Asp26; reduced)?
Answer: The pKa was 9.9.

Question: Which pKa (Glu172) does the source give for “Xylanase (endo-1,4-beta-xylanase), wild type (Bacillus circulans (not stated in the article))” here?
Answer: The pKa was 6.7.

Question: For “Xylanase, mutant with Glu78 covalently linked to substrate (PDB 3VZO) (Bacillus circulans (not stated in the article); not stated (the article says only that 'another nearby residue is mutated'))”, which pKa (Glu172; Glu78 covalently linked to substrate (covalent intermediate), nearby residue mutated) is on record?
Answer: The pKa was 2.8.
